Target: the molecule itself
Test: crystal structure

B1: EfgA (enhanced formaldehyde growth protein A) from Methylorubrum extorquens PA1 (natural protein)
chain: MHVTIEQAEKAIQAARAKAVELGTQMCIAIVDSGGNLKAFHRMDGAWVGSIDIAQKKAKTAVFFGMKTGQIGALSQPGGSLYGIEHSNQGLITFPGGIPIVDADGEMSGAIGVSGSSVENDDAVALAGASAIGDTELPDHPWRT
- stoichiometry N: 4
